Experimental data published in patent US6051381, “Prokaryotic two-hybrid system” (dated 2000).

Legend:
[1] = biological target: Jun-LexADNA (mouse; E. coli) (UniProt P05627); assay: E. coli two-hybrid, lacZ repression; reporter construct P3IHFLexAOpmH
[2] = biological target: Jun-LexADNA (mouse; E. coli) (UniProt P05627); assay: E. coli two-hybrid, lacZ repression; reporter construct P3IHFLexAOpX
[3] = biological target: Fos-LexA (E. coli; mouse) (UniProt P01101); assay: E. coli two-hybrid, lacZ repression; reporter plasmid P3IHFLexAOpimpX
E6-LexA (E. coli; HPV) [4] = biological target: E6-LexA (E. coli; HPV) (UniProt P0A7C2); assay: E. coli two-hybrid, lacZ repression; 0.5 mM IPTG, 50 ng/ml anhydrotetracycline; reporter P3IHFLexAimpX
[5] = biological target: Jun-LexADNA (mouse; E. coli) (UniProt P05627); assay: E. coli two-hybrid, lacZ repression; reporter construct P3IHFLexAOpH
[6] = biological target: Jun-LexADNA (mouse; E. coli) (UniProt P05627); assay: E. coli two-hybrid, lacZ repression; reporter construct P3LexAOpX
[7] = biological target: Jun-LexADNA (mouse; E. coli) (UniProt P05627); assay: E. coli two-hybrid, lacZ repression; reporter construct P3LexAOpH
[8] = biological target: Jun-LexADNA (mouse; E. coli) (UniProt P05627); assay: E. coli two-hybrid, lacZ repression; reporter construct P3
zip-LexADNA (E. coli) [9] = assay: E. coli two-hybrid, lacZ repression; reporter construct P3IHFLexAOpX
zip-LexADNA (E. coli) [10] = assay: E. coli two-hybrid, lacZ repression; reporter construct P3LexAOpH
zip-LexADNA (E. coli) [11] = assay: E. coli two-hybrid, lacZ repression; reporter construct P3
zip-LexADNA (E. coli) [12] = assay: E. coli two-hybrid, lacZ repression; reporter construct P3IHFLexAOpmH
zip-LexADNA (E. coli) [13] = assay: E. coli two-hybrid, lacZ repression; reporter construct P3IHFLexAOpH
E6-LexA (E. coli; HPV) [14] = biological target: E6-LexA (E. coli; HPV) (UniProt P0A7C2); assay: E. coli two-hybrid, lacZ repression; non-interacting control pair; reporter P3IHFLexAimpX
zip-LexADNA (E. coli) [15] = assay: E. coli two-hybrid, lacZ repression; reporter construct P3LexAOpX
wild-type AraC = biological target: T1, wild-type AraC (E. coli, UniProt P0A9E0); assay: E. coli two-hybrid, lacZ repression, reporter P3IHFLexAOpimpX
T1 sequence: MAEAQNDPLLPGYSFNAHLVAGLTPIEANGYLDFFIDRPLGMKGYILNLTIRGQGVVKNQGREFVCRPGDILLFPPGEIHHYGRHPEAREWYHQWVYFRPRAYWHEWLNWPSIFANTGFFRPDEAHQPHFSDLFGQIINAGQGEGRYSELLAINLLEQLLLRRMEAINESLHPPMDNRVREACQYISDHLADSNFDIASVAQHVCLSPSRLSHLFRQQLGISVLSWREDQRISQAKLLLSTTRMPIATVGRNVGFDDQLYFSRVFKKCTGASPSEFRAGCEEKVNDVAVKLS

Molecule: AraCDNA
- repression ratio [1]: 1.09
- repression ratio [2]: 1.1

Molecule: Jun-AraC (from UniProt P05627)
- repression ratio [3]: 11 fold

Molecule: E6AP-AraCDNA (from UniProt Q05086)
- repression ratio (E6-LexA (E. coli; HPV) [4]): > 30 fold

Molecule: Fos-AraCDNA (from UniProt P01101)
- repression ratio [5]: 1.9
- repression ratio [6]: 2.3
- repression ratio [7]: 2
- repression ratio [2]: 4.2
- repression ratio [8]: 1.1

B1: AraCDNA (protein)
chain: ESLHPPMDNRVREACQYISDHLADSNFDIASVAQHVCLSPSRLSHLFRQQLGISVLSWREDQRISQAKLLLSTTRMPIATVGRNVGFDDQLYFSRVFKKCTGASPSEFRAGCEEKVNDVAVKLS
- repression ratio (zip-LexADNA (E. coli) [9]): 1.2
- repression ratio (zip-LexADNA (E. coli) [10]): 1
- repression ratio (zip-LexADNA (E. coli) [11]): 1.2
- repression ratio (zip-LexADNA (E. coli) [12]): 0.9
- repression ratio (zip-LexADNA (E. coli) [13]): 1.1
- repression ratio (E6-LexA (E. coli; HPV) [14]): 1.5
- repression ratio (zip-LexADNA (E. coli) [15]): 1.1

B2: wild-type AraC (protein)
chain: T1 sequence
- repression ratio (zip-LexADNA (E. coli) [9]): 1.2
- repression ratio (zip-LexADNA (E. coli) [10]): 1.1
- repression ratio (zip-LexADNA (E. coli) [11]): 1.2
- repression ratio (zip-LexADNA (E. coli) [12]): 1.06
- repression ratio (zip-LexADNA (E. coli) [13]): 1
- repression ratio (zip-LexADNA (E. coli) [15]): 1.2

B3: Fos-LexA (other)
chain: RGKVEQLSPEEEEKRRIRRERNKMAAAKCRNRRRELTDTLQAETDQLEDEKSALQTEIANLLKEKEKLEFILAAHRPACKIPDDLGFPEEMSV
- binding result (wild-type AraC): no binding
